The values below come from patent EP4700044A1, “PROTEIN ANALOGUE AND USE THEREOF” (Shanghai Duomirui Biotechnology., Ltd., priority 2023, dated 2024).

This test deals with FGFR1c (UniProt P11362). Nature of the test: cell-based or functional assay.
Sequence of FGFR1c (P11362 22-822): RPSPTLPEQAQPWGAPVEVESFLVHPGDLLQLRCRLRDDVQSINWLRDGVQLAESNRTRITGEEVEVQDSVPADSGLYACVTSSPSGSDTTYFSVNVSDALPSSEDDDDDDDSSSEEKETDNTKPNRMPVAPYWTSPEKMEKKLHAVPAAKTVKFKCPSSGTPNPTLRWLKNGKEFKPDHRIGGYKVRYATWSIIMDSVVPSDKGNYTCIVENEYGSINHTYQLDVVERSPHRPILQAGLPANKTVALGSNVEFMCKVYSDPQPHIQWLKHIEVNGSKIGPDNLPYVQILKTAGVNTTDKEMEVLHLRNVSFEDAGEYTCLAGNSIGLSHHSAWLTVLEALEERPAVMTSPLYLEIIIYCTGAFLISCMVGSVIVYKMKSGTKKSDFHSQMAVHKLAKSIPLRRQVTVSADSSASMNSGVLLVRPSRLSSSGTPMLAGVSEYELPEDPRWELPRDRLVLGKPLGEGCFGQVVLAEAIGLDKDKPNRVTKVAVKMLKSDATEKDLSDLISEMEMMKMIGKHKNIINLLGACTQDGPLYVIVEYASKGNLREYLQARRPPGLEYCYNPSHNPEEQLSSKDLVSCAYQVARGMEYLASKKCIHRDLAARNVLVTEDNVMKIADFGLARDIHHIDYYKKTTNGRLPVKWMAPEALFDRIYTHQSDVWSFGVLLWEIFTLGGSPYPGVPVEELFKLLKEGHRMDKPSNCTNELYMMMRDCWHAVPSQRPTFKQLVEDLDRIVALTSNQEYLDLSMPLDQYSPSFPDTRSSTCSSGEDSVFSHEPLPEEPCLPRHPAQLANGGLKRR

Turning to “Human mature FGF21 fusion protein with a N-terminal PAS15 modification (PAS15FGF21) (from UniProt Q9NSA1 29-209) (ligand)”, the EC50(nM), dual-luciferase reporter gene assay, iLite FGF21 assay ready cells was 0.22 nM. For the substance “Human mature FGF21 fusion protein with a N-terminal PAS30 modification (PAS30FGF21) (ligand)”, the EC50(nM), dual-luciferase reporter gene assay, iLite FGF21 assay ready cells is 0.3 nM. The figure for “Human mature FGF21 fusion protein with a N-terminal PAS50 modification (PAS50FGF21) (ligand)” is 0.4 nM; for “Human mature FGF21 fusion protein with a N-terminal PAS100 modification (PAS100FGF21) (ligand)” it is 0.62 nM; for “Human mature FGF21 fusion protein with a N-terminal PAS200 modification (PAS200FGF21) (ligand)” it is 1.98 nM.
